From patent US20210292393A1 (published 2021)
Numbering of substitutions follows the chain as printed.

B1: antibody 492 (antibody, V domains shown)
VH: QVQLVESGGGVVQPGRSLRLSCAASGFTFSSYGMHWVRQAPGKGLEWVAVISYDGSNKYYADSVKGRFTISRDNSKNTLYLQMNSLRAEDTAVYYCAKDGILWWWWGYFDYWGQGTLVTVSS
VL: QSVLTQPPSVSGAPGQRVTISCTGSSSNIGAGFDVHWYQQLPGTAPKLLIYGNSNRPSGVPDRFSGSKSGTSASLAITGLQAEDEADYYCQSYDSSLSVVFGGGTKLTVL
B2: antibody 496 (antibody, V domains shown)
VH: QVQLVQSGAEVKKPGASVKVSCKASGYTFTDYYIHWVRQAPGQGLEWMGWINPNSGGTNYAQKFQGRLTMTRDTSISTAYMELSRLRSDDTAVYYCARVYSMFREFIINPYYYYYGLDVWGQGTTVTVSS
VL: QSALTQPASVSGSPRQSITISCTGTSSDVGSYNLVSWYQQHPGKAPKLMIYEGSKRPSGVSNRFSGSKSGNTASLAISGLQAEDEANYYCCSYAGSSTLVFGGGTKLTVL
B3: antibody 497 (antibody, V domains shown)
VH: QVQLQESGPGLVKPSQTLSLTCTVSGGSINSFGYYWSWIRQHPGKGLEWIGYIYYSGSTDYNPSLNSRVTISLDTSKNQFLLKLTSVTAADTAVYYCAKLTDYYDSSGYSFDYWGQGTLVTVSS
VL: DIQMTQSPSSVSASVGDRVTITCRASQDISRWLAWYQQKPGKAPKLLIYAASSLQSGVPSRFSGRGSGTELTLTISSLQPEDFATYFCQQAYSFPFTFGGGTKVEIK
B4: antibody 504 (antibody, V domains shown)
VH: QVQLVESGGGVVQPGRSLRLSCAASGFTFSSYGMHWVRQAPGKGLEWVAVISYDGSNKYYADSVKGRFTISRDNSKNTLYLQMNSLRAEDTAVYYCAKGGGGGYCSGGSCYSHYFDYWGQGTLVTVSS
VL: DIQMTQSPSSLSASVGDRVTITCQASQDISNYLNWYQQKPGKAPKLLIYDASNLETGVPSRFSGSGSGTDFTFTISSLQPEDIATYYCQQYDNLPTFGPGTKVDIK
B5: antibody 509 (antibody, V domains shown)
VH: QVQLVESGGGVVQPGRSLRLSCAASGFNLSSYAMHWVRQASGKGLEWVSLISYDGSIKYYTDSVKGRFTVSGDNSKNTLFLQMNSLRADDSALYYCVRGGVSGPNSFDLWGQGTTVTVSS
VL: DVVMTQSPLSLPVTLGQPASISCRSSQSLVYSDGNTYVNWFQQRPGQSPRRLIYKVSIRASGVPDRFSGSGSGTDFALKISRVEAEDVGVYYCMQGTHWPVTFGQGTKVEIK
B6: antibody 517 (antibody, V domains shown)
VH: B5 VH with S31N, L109M
VL: B5 VL with K55Q
B7: antibody 510 (antibody, V domains shown)
VH: QVQLQESGPGLVKPSQTLSLTCTVSGGSISSGSYYWSWIRQPAGKGLEWIGRIYTSGSTNYNPSLKSRVTISVDTSKNQFSLKLSSVTAADTAVYYCAREGQWLYRFDYWGQGTLVTVSS
VL: QSALTQPASVSGSPGQSITISCTGTSSDVGNYDLVSWYQQHPGKAPKLVIYGVTKRPSGVSNRFSGSKSGNTASLTISGLQAEDEADYYCCSYATGDTSVFGTGTKVTVL
B8: antibody 514 (antibody, V domains shown)
VH: EVQLVQSGAEVKKPGATVKISCKVSGYTFTDYYMHWVQQAPGKGLEWMGLVDPEDGETIYAEKFQGRVTITADTSTDTAYMELSSLRSEDTAVYYCATDCKYDILTGHYSAGYYYYGMDVWGQGTTVTVSS
VL: DIQMTQSPSSLSASVGDRVTITCRASQGISNYLAWFQQKPGKAPKSLIYAASSLQSGVPSKFSGSGSGTDFTLTISSLQPEDFATYYCQQYNSYPFTFGGGTKVEIK
B9: antibody 516 (antibody, V domains shown)
VH: QVELQQWGAGLLKPSETLSLTCAVYGGSFSGYYWSWIRQPPGKGLEWIGEINHSGSTNYNPSLKSRVTISIDTSKNQFSLKLSSVTAADTAVYYCARGTTVTTFFAPHWYFDLWGRGTLVTVSS
VL: QSALTQPASVSGSPGQSITISCTGTSSDVGGYNYVSWYQQHPGKAPKLMIYDVSNRPSGVSNRFSGSKSGNTASLTISGLQAEDEADYYCSSYTSSSTPYVFGTGTKVTVL
B10: antibody 522 (antibody, V domains shown)
VH: EVQLVESGGGLVQPGGSLRLSCAASGFNFSSYSMNWVRQAPGKGLEWVSYISSSSSTIYYADSVKGRFTISRDNAKNSLYLQMNSLRDEDTAVYYCARGPEWDIVVVQAENWFDPWGQGTLVTVSS
VL: SYELTQPPSVSVSPGQTARITCSGDALPKQYVYWYQQKPGQAPVLVIYKDSERPSGIPERFSGSSSGTTVTLTISGVQAEDEADYYCQSADSSGTYRGVFGGGTKLTVL
B11: antibody 523 (antibody, V domains shown)
VH: EVQLVESGGVSVQPGGSLRLSCAASGFSFNTYDMHWVRQGTGKGLEWVSGIGTAGDTYYSDSVKGRCTISRDNAKNSLHLLVKSVRAADTAVYYCARGVGGIIDYWGQGTLVTVSS
VL: NFVLSQPHSVSESPGKTVTISCTGNSGSIATKYVQWFQQRPGSAPTTVIYEDNQRPSGVPDRFSGSSDSSSNSASLTISGLKTEDEAHYYCQSYHNRRWVFGGGTKLTVL
B12: antibody 343 (antibody, V domains shown)
VH: QVQLVESGGDVVQPGTSLRLSCAASGFTFNNYGFHWVRQAPGKGLEWVALISSDGASTHYADSVKGRFTISRDSSVNTLYLQMNSLSLEDTAVYYCATGHCGTTCYYFDYWGQGTLVSVSS
VL: DIQVTQSPSYLSASVGDRVTITCRASQTISTFLQWYQQKVGKAPKLLIYAASTLQSGVPSRFSGSGSGTDFSLTISSLQPEDFATYYCQQSYSAPLSFGGGTKVEIK
B13: antibody 344 (antibody, V domains shown)
VH: QVQLVESGGGVVQPGRSLRLSCAASGFTFSSYAMHWVRQAPGKGLEWMAVISYDGSNKYYADSVKGRFTISRDNSKNTLYLQMNSLRAEDTAVYFCAKGYSGSYYEPFDYWGQGTLVTVSS
VL: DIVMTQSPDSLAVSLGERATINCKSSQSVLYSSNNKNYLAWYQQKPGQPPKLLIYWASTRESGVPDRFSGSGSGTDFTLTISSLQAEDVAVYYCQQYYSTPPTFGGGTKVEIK
B14: antibody 345 (antibody, V domains shown)
VH: QVQLQESGPGLVKPSQTLSLTCTVSGGSISSGDYYWSWIRQPPGKGLEWIGYIYYSGSTYYNPSLKSRVTISVDTSKNQFSLKLSSVTAADTAVYYCARVGMVDNWNFEGNWFDPWGQGTLVTVSS
VL: QSALTQPRSVSGSPGQSVTISCTGTSSDVGGYNYVSWYQQHPGKAPKLMIYDVSKRPSGVPDRFSGSKSGNTASLTISGLQAEDEADYYCCSYAGSVVFGGGTKLTVL
B15: antibody 348 (antibody, V domains shown)
VH: QVQLVQSGSELKKPGASVKVSCKASGYTFTSYAMNWVRQAPGQGLEWMGWINTNTGNPTYAQGFTGRFVFSLDTSVSTAYLQISSLKAEDTAVYYCARDHELPNTSSWFGHFEYWGQGTLVTVSS
VL: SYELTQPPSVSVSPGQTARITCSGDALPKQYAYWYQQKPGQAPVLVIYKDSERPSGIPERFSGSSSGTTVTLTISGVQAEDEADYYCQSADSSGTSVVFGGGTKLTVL
B16: antibody 351 (antibody, V domains shown)
VH: HVQLVESGGGVVQPGRSLRLSCAASGFISRNYGMEWVRQAPGQGLEWVAGIWYDGSKKYYADSVKGRFTISRDTSKNTLFLQMDSLRAEDTAVFYCATATKTFCGGDCPPGGMDVWGQGTTVTVST
VL: SYVLTQPPSVSVAPGKTAWITCVGNNIESESVHWYQQRPGQAPVLVIYYDSDRPSGIPERFFGSNSGNTATLTISRVEAGDEADYYCQVWDSNSDLMVFGGGTKLTVL
B17: antibody 363 (antibody, V domains shown)
VH: EVQLLESGGGLVQPGGSLRLSCAASGFTFSTYAMSWVRQAPGKGLEWVSAISGSGGSTYYADSVKGRFTISRDNSKNTLYLQMNSLRAEDTAVYYCASGYSPDYWGQGTLVTVSS
VL: not shown
B18: antibody 366 (antibody, V domains shown)
VH: QVQLVESGGGVVQPGRSLRLSCAASGFTFSSYAMHWVRQAPGKGLEWVAVISYDGSNKYYADSVKGRFTISRDNSKNTLYLQMNSLRAEDTAVYYCARGLVGYNWFDPWGQGTLVTVSS
VL: DIQMTQSPSSVSASVGDRVTITCRASQGISSWLAWYQQKPGKAPKLLIYAASSLQSGVPSRFSGSGSGTDFTLTISSLQPEDFATYYCQQANSFTFGPGTKVDIK
B19: antibody 367 (antibody, V domains shown)
VH: QVQLVQSGAEVKKPGASVKVSCKASGYTFTGYYIHWVRQAPGQGLEWMGWINPNSGGTIYAQKFQGRVTMTRDTSISTAYMELSRLTSDDTAVYSCAREPYYDILTGYYAPRRYFDYWGQGTLVTVSS
VL: QSALTQPASVSGSPGQSITISCTGTSSDVGSYNYVSWYLQHPGKAPKLMIYDVSNRPSGVSNRFSGSKSGNTASLTISGLQAEDEADFYCSSYTSRSTYVFGTGTKVTVL
B20: antibody 372 (antibody, V domains shown)
VH: QVQLVESGGGVVQPGRSLRLSCAASGFTFSSYAMHWVRQAPGKGLEWVAVISYDGSNKYYADSVKGRFTISRDNSKNTLYLQMNSLRAEDTAVYYCARDLGTSALLWFGELFLNYGMDVWGQGTTVTVSS
VL: QSALTQPRSVSGSPGQSVTISCTGTSSDVGGYNYVSWYQQHPGKAPKLMIYDVSKRPSGVPDRFSGSKSGNTASLTISGLQAEDEADYYCCSYAGSPILVFGGGTKLTVL
B21: antibody 378 (antibody, V domains shown)
VH: QVQLVQSGAEVKKPGASVKVSCKASGYTFTSYYMHWVRQAPGQGLEWMGIINPSGGSTSYAQKFQGRVTMTRDTSTSTVYMELSSLRSEDTAVYYCARDSGGMDDFWSGYYSPGGDYWGQGTLVTVSS
VL: B2 VL with R15G, A76T, N87D, L99W
B22: antibody 380 (antibody, V domains shown)
VH: QVQLVESGGGVVQPGRSLRLSCAASGFTLKNYGMHWVRQAPGKGLEWVIVLSFDGSDEYKADSVRGRFTVSRDNSKNTLFLQMNSLRPDDTAVYYCAREQPTMIEGGRGPFDIWGQGTMVTVSS
VL: EVVMTQSPATLSVSPGDRATLSCRASQGVNSNLAWYQQKPGQAPRLLIYAASTRATGIPARFSASGSGTHFTLTISSLQSEDFAVYYCLQYNNWPPWTFGQGTKLEIK

target: SARS-CoV-2 full length spike protein, wild type, expressed on the surface of CHO cells (SARS-CoV-2, UniProt P0DTC2 14-1273)

Going from B1 to B2, the “median fluorescence fold over isotype control” value rises from 9.25 fold over isotype to 19.7 fold over isotype.

First: B3
Second: B4
The “median fluorescence fold over isotype control” value of the first is higher: 28.3 fold over isotype for the first, 2.78 fold over isotype for the second.

Compared with B5, B6 is higher in “median fluorescence fold over isotype control” value: 10.2 fold over isotype for the first, 10.3 fold over isotype for the second.

First: B7
Second: B8
The “median fluorescence fold over isotype control” value of the first is higher: 1.18 fold over isotype for the first, 1.04 fold over isotype for the second.

First: B9
Second: B10
The “median fluorescence fold over isotype control” value of the first is lower: 3.31 fold over isotype for the first, 9.18 fold over isotype for the second.

For B11, the “median fluorescence fold over isotype control” value was 5.18 fold over isotype.

target: SARS-CoV-2 spike (S) protein, full length, wild type, expressed on the surface of CHO cells (SARS-CoV-2, UniProt P0DTC2 14-1273)

First: B12
Second: B13
The “median fluorescence fold over isotype” value of the first is lower: 1.12 fold over isotype for the first, 7.55 fold over isotype for the second.

Compared with B14, B15 is higher in “median fluorescence fold over isotype” value: 11.7 fold over isotype for the first, 19.6 fold over isotype for the second.

Compared with B16, B17 is higher in “median fluorescence fold over isotype” value: 1.06 fold over isotype for the first, 16.8 fold over isotype for the second.

Going from B18 to B19, the “median fluorescence fold over isotype” value rises from 8.97 fold over isotype to 26.5 fold over isotype.

Compared with B20, B21 is lower in “median fluorescence fold over isotype” value: 30.2 fold over isotype for the first, 25.3 fold over isotype for the second.

In the case of B22, the “median fluorescence fold over isotype” value is reported as 1.06 fold over isotype.
